From publication PMC4564863

T1: InbR (Mycobacterium tuberculosis H37Rv, UniProt L7N6A2 1-241)
T1 sequence: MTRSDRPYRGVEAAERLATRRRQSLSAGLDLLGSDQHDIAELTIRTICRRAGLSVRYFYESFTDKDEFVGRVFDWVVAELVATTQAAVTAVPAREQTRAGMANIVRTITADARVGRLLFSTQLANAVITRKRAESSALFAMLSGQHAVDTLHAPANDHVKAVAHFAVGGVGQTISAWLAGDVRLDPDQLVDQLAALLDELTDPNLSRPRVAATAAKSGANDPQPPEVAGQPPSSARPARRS


Columns and labels:
InbR (Rv0275c) = InbR (Rv0275c) (Mycobacterium tuberculosis, UniProt L7N6A2); test: biochemical
InbR = molecular target: T1, InbR; test: EMSA; 0.25-2 uM InbR; details: protein: recombinant; tags: His6 (pET28a, N-terminal); label: FITC

Row | Molecule | Kd (InbR (Rv0275c)) | binding result (InbR)
1 | NNC(=O)c1ccncc1 [INH, Isoniazid] | 720 nM | –
2 | Rv0275cp4 (dsDNA) DNA 1: TGCCGCTAATTATTTATTTGCCGTGGGAATGATATTGGCCGG DNA 2: CCGGCCAATATCATTCCCACGGCAAATAAATAATTAGCGGCA | – | no binding
3 | Rv0275cp1 (dsDNA) DNA 1: TGCCGCTAATTATGGAAACACCTGTATCCTGATATTGGCCGG DNA 2: CCGGCCAATATCAGGATACAGGTGTTTCCATAATTAGCGGCA | – | binds
